According to article PMC12421412:

Target: ectodomain of APP^695 (amyloid precursor protein)
Test: SPR; ectodomain of APP^695 coupled to the sensor chip surface; purified SORLA ectodomains as analyte; neutral pH; data also analysed with EVILFIT

| SPR sensorgram peak (response units) | Substance |
| --- | --- |
| 1650 RU | soluble mutant SORLA^N1358S ectodomain, hexa-His-tagged (from UniProt Q92673 82-2137) (domain or fragment) |
| 1750 RU | soluble wildtype SORLA ectodomain (Sortilin-related receptor with A-type repeats), hexa-His-tagged (from UniProt Q92673 82-2137) (domain or fragment) |
